Test [1] deals with RBBP4, full-length, wild type (UniProt Q09028). In words: ITC; AEBP2 ZF1–3 titrated into RBBP4; one-site binding model, Origin 7.
The target in test [2] is RBBP4 Glu126Ala/Asn128Ala/Glu179Ala (UniProt Q09028). Described as above.

In general, Kd refers to the equilibrium constant for the complex coming apart.

RBBP4 Glu126Ala/Asn128Ala/Glu179Ala, sequence (Q09028 whole entry E126A/N128A/E179A): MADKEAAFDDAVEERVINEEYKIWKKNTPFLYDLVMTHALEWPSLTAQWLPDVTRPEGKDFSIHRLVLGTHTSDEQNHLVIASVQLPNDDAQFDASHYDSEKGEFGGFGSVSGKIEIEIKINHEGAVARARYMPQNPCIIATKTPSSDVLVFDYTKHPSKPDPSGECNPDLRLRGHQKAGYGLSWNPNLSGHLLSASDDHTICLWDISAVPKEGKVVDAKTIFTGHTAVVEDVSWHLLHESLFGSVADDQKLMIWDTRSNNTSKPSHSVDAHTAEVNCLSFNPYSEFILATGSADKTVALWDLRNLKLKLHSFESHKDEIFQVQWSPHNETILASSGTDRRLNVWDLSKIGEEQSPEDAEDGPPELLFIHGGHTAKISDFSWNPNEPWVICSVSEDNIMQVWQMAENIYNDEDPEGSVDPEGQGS
RBBP4, full-length, wild type, sequence (Q09028 whole entry): as the sequence (Q09028 whole entry E126A/N128A/E179A) above, with A126E, A128N, A179E counted along it

On to “AEBP2 ZF1–3 (three zinc fingers, residues Asn258–Gln357) (domain or fragment)”, for which the values for the Kd in test [1] and in test [2] were 10.1 µM and 16 µM, respectively.

For the origin of these results see article PMC6053351.
